According to IntAct's records for PubMed 24358019:

B1: RNA polymerase sigma factor RpoH (Escherichia coli (strain K12)), P0AGB3 (parent)
chain: MTDKMQSLALAPVGNLDSYIRAANAWPMLSADEERALAEKLHYHGDLEAAKTLILSHLRFVVHIARNYAGYGLPQADLIQEGNIGLMKAVRRFNPEVGVRLVSFAVHWIKAEIHEYVLRNWRIVKVATTKAQRKLFFNLRKTKQRLGWFNQDEVEMVARELGVTSKDVREMESRMAAQDMTFDLSSDDDSDSQPMAPVLYLQDKSSNFADGIEDDNWEEQAANRLTDAMQGLDERSQDIIRARWLDEDNKSTLQELADRYGVSAERVRQLEKNAMKKLRAAIEA
partner: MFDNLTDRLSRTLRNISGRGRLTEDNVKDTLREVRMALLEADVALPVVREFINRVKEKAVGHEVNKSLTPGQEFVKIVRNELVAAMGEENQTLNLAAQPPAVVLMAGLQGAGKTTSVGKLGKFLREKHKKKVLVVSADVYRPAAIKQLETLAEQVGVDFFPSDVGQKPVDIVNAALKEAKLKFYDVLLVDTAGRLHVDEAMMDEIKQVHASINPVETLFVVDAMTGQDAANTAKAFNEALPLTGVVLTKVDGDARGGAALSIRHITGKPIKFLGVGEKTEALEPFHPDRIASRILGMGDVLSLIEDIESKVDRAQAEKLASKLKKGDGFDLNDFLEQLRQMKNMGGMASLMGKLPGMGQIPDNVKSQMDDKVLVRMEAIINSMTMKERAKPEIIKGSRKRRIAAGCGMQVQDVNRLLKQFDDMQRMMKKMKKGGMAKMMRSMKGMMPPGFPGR

Variants of: B1
Conditions: with srp54_ecoli ffh

Variant | effect of a mutation on the interaction
MTDKMQSLALAPVGNLDSYIRAANAWPMLSADEERALAEKLHYHGDLEAAKTLNLSHLRFVVHIARNYAGYGLPQADLIQEGNIGLMKAVRRFNPEVGVRLVSFAVHWIKAEIHEYVLRNWRIVKVATTKAQRKLFFNLRKTKQRLGWFNQDEVEMVARELGVTSKDVREMESRMAAQDMTFDLSSDDDSDSQPMAPVLYLQDKSSNFADGIEDDNWEEQAANRLTDAMQGLDERSQDIIRARWLDEDNKSTLQELADRYGVSAERVRQLEKNAMKKLRAAIEA [I54N] | decreasing interaction strength
